Laboratory results from PMC10997478.

Key:
[1] = target: T1, FEM1C (human) (UniProt Q96JP0)
T1 sequence: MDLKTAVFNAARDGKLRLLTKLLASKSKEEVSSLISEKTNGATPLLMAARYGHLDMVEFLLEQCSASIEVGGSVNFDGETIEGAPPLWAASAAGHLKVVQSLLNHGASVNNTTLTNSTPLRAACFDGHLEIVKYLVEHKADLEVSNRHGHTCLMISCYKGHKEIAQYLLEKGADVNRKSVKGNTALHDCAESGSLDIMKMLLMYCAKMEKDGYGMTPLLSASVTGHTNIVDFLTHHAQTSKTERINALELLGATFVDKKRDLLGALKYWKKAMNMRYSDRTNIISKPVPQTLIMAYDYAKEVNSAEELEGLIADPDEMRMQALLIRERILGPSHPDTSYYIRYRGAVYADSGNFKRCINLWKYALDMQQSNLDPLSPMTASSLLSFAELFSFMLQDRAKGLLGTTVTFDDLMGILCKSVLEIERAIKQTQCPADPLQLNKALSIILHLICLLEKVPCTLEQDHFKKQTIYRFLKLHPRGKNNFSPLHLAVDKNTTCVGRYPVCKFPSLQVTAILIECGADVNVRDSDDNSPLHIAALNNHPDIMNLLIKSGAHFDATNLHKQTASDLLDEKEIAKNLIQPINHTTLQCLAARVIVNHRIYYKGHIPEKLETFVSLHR

[2] = target: NEDD8-Fluor568CRL2FEM1C (human) (UniProt Q15843)
[3] = target: neddylated Fluor568CRL2VHL (human) (UniProt Q15843)
[4] = target: NEDD8-Fluor568CUL2-RBX1 (human) (UniProt Q15843); test: FRET or BRET; Fluor647UBE2R2C93K titrated into 25 or 50 nM NEDD8-Fluor568CUL2-RBX1 in solution; 30 mM Tris pH 7.5, 100 mM NaCl, BSA; excitation 575 nm; one-site binding fit
[5] = target: NEDD8-Fluor568CUL2-RBX1 (human) (UniProt Q15843); test: FRET or BRET; Fluor647UBE2R2C93K titrated into 25 or 50 nM NEDD8-Fluor568CUL2-RBX1 in solution; 30 mM Tris pH 7.5, final 50 mM NaCl, BSA; excitation 575 nm; one-site binding fit
[6] = target: NEDD8-Fluor568CRL2FEM1C (human) (UniProt Q15843); test: other fluorescence titration
[7] = target: neddylated ^Fluor568CRL2^FEM1C (human) (UniProt Q13617); test: other fluorescence titration; environmental perturbation of Alexa Fluor 568 on neddylated ^Fluor568CRL2^FEM1C (25 or 50 nM); unlabeled UBE2R2 titrated; reaction buffer at ionic strength of 50 mM; one-site model
[8] = target: NEDD8-Fluor568CRL2FEM1C (human) (UniProt Q15843); test: other fluorescence titration; environmental perturbation of the Fluor568 dye: unlabelled UBE2R2 titrated into 25 or 50 nM NEDD8-Fluor568CRL2FEM1C; 30 mM Tris pH 7.5, 100 mM NaCl, BSA; one-site binding fit
[9] = target: NEDD8-Fluor568CRL2FEM1C (human) (UniProt Q15843); test: other fluorescence titration; environmental perturbation of the Fluor568 dye: unlabelled UBE2R2 or UBE2R2C93K-ubiquitin titrated into 25 or 50 nM NEDD8-Fluor568CRL2FEM1C; 30 mM Tris pH 7.5, final 50 mM NaCl, BSA; one-site binding fit

Sequence of UBE2D3 (P61077 whole entry): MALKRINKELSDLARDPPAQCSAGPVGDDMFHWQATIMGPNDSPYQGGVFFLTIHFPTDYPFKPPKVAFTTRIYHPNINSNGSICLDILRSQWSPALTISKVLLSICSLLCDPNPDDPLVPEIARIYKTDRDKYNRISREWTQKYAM
Sequence of ARIH1 (Q9Y4X5 whole entry): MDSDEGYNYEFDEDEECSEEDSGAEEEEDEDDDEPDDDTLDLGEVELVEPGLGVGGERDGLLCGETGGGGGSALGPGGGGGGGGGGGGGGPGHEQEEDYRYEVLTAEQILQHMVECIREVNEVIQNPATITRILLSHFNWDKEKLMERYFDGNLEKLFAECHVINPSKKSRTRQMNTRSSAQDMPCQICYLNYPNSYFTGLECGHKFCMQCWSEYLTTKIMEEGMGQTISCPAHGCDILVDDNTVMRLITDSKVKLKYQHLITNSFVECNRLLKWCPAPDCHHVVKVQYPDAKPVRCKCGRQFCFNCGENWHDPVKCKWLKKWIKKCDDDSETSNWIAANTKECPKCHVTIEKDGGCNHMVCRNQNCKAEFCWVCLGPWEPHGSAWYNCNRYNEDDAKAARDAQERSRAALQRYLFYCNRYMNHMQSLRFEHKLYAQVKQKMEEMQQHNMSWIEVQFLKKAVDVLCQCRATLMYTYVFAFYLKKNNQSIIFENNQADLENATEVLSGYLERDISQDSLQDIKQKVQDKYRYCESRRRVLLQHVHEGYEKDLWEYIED
Sequence of UBE2G1 (P62253 whole entry): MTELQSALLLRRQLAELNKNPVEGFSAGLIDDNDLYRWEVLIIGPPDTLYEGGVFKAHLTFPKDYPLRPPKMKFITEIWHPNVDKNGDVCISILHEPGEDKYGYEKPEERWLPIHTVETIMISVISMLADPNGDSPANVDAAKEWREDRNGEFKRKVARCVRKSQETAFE

E88R UBE2R2 (from UniProt Q712K3 1-238) (enzyme)
catalytic efficiency of Sil1 peptide priming with neddylated CRL2^FEM1C, against wild type [1]: 300 fold

UBE2G1 (from UniProt P62253 1-170) (enzyme)
Table S1: Km of the UCE for the CRL complex; ubiquitin priming of Sil1 peptide, UBE2G1 (K0 ubiquitin) with unlabelled neddylated CRL2FEM1C, Michaelis-Menten fit [2]: 1.14 µM

ARIH1 (from UniProt Q9Y4X5 1-557) (enzyme)
Table S1: Km of the UCE for the CRL complex; ubiquitin priming of Sil1 peptide, ARIH1 (with UBE2L3, K0 ubiquitin) with unlabelled neddylated CRL2FEM1C, Michaelis-Menten fit [2]: 0.143 µM
Table S1: Km of the UCE for the CRL complex; ubiquitin priming of Hif1α peptide, ARIH1 (with UBE2L3, K0 ubiquitin) with unlabelled neddylated CRL2VHL, Michaelis-Menten fit [3]: 0.151 µM

Fluor647UBE2R2C93K (from UniProt Q712K3 1-238) (enzyme)
Kd [4]: 1140 nM
Kd [5]: 276 nM

UBE2R2C93K-ubiquitin (from UniProt Q712K3 1-238; P0CG48 1-76) (complex)
Kd [6]: 50 nM

UBE2R2 (wild type, unlabeled) (from UniProt Q712K3 1-238) (enzyme)
fold decrease of Kd against neddylated CUL2-RBX1 alone [7]: 7 fold

UBE2R2 (wild-type, unlabeled) (from UniProt Q712K3 1-238) (enzyme)
Kd [8]: 156 nM
Kd [9]: 44 nM

UBE2D3 (from UniProt P61077 1-147) (enzyme)
Table S1: Km of the UCE for the CRL complex; ubiquitin priming of Sil1 peptide, UBE2D3 (K0 ubiquitin) with unlabelled neddylated CRL2FEM1C, Michaelis-Menten fit [2]: 0.916 µM
Table S1: Km of the UCE for the CRL complex; ubiquitin priming of Hif1α peptide, UBE2D3 (K0 ubiquitin) with unlabelled neddylated CRL2VHL, Michaelis-Menten fit [3]: 6.24 µM
